Reference: patent US20230365699A1 (published 2023)
One block for each binder: values may come before it.

Legend:
[1] = target: human BCMA (B-cell maturation antigen) expressed on cells (human) (UniProt Q02223); assay: flow cytometry, hBCMA-expressing HEK293 cells against parental HEK293 cells
[2] = target: T1, human BCMA (B-cell maturation antigen) expressed on cells (human, UniProt Q02223 1-184); assay: flow cytometry on hBCMA-expressing HEK293 cells
T1 construct: whole, on cells; also called hBCMA; hBCMA/HEK293 cell line
T1 sequence (looked up): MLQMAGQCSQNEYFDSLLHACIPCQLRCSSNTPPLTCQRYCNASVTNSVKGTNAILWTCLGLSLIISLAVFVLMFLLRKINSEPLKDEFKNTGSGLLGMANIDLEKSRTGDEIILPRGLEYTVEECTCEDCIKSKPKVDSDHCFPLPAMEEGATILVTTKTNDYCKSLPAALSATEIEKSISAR

[3] = target: T1, human BCMA (B-cell maturation antigen) …; assay: flow cytometry, hBCMA-overexpressing HEK293 compared with OPM2 and RPMI-8226 cells

- fold selective binding (hBCMA-expressing HEK293 over parental HEK293) [1]: 3.4 fold
B1: BCMA-21 scFv (scFv)
scFv: EVQLVESGGGLVKPGGSLKLSCAASGFTFSDYYMSWIRQAPGKGLEWVSYISSSGSTIYYADSVKGRFTISRDNAKNSLYLQMNSLRAEDTAVYYCAKVDGGYTEDYWGQGTLVTVSSGGGGSGGGGSGGGGSQSVLTQPPSASGTPGQRVTISCSGSGSNIGSNDVSWYQQIPGTAPKLLIYWNDQRPSGVPDRFSGSKSGISASLAISGLRSEDEADYYCAAWDDSLNGYVFGTGTKVTVL

- fold selective binding (hBCMA-expressing HEK293 over parental HEK293) [1]: 10.8 fold
B2: BCMA-20 scFv (scFv)
scFv: EVQLLESGGGLVQPGRSLRLSCAASGFTFDDYAMHWVRQAPGKGLEWVSGISWNSGSIGYADSVKGRFTISRDNAKNSLYLQMNSLRAEDTALYYCAKGGLGITPYYFDYWGQGTLVTVSSGGGGSGGGGSGGGGSQPVLTQPPSASGTPGQRVTISCSGGKTVNWFRQVPGTAPQLLIYSNDQRPSGVPDRFSGSKSGSSASLDISGLQSEDEAYYYCGSWDDSLNAWVFGGETKLTVL

- fold selective binding (hBCMA-expressing HEK293 over parental HEK293) [1]: 2.2 fold
B3: BCMA-18 scFv (scFv)
scFv: EVQLLESGGGLVQPGGSLRLSCAASGFTFSSYWMSWHRQAPGKGPEWVAHINQDGSEKYYVDSVKGRFTISRDNAESSLYLQMNSLRAEDTAVYYCARWLAVTNWGQGTLVTVSSGGGGSGGGGSGGGGSQSVLTQPPSASGTPGQRVTISCSGSGSNIGSNDVSWYQQIPGTAPKLLIYWNDQRPSGVPDRFSGSKSGTSASLAISGLRSEDEADYYCAAWDDSLNGWVFGGGTKLTVL

- binding result [2]: no binding
B4: BCMA-13 scFv (scFv)
scFv: QMQLVQYGGGVVQPGRSLRLSCAASGFTFSSYAMHWVRQAPGKGLEWVAVISYDGSNKYYADSVKGRFTISRDNSKNTLYLQMNSLKAEDTAVYYCATLPGRDGYPGAFDYRGQGTLVTVSSGGGGSGGGGSGGGGSQAVLTQPPSASGTPGQRVTISCSGSGSNIGSNDVSWYQQIPGTAPKLLIYWNDQRPSGVPDRFSASKSGTSASLAISGLRSEDEADYYCAAWDDSLGGSWVFGGGTKVTVL

- binding result [3]: binds
B5: BCMA-30 scFv (scFv, V domains shown)
VH: QVQLVQSGGGLVQPGRSLRLSCAASGFTFGDYAMHWVRQAPGKGLEWVSGISWNSGSIGYADSVKGRFTISRDNAKNSLYLQMNSLRAEDTAVYYCARDLDPDDAFDIWGQGTMVTVSS

- fold selective binding (hBCMA-expressing HEK293 over parental HEK293) [1]: 7.5 fold
B6: BCMA-22 scFv (scFv)
scFv: EVQLVESGGGLVKPGGSLRLSCAASGFTFSDYYMSWIRQAPGKGLEWVSYISSSGSTIYYADSVKGRFTISRDNAKNSLYLQMNSLRAEDTAVYYCAKVDGDYTEDYWGQGTLVTVSSGGGGSGGGGSGGGGSQSALTQPASVSGSPGQSITISCTGSSSDVGKYNLVSWYQQPPGKAPKLIIYDVNKRPSGVSNRFSGSKSGNTATLTISGLQGDDEADYYCCSYGGSRSYVFGTGTKVTVL
